Results on 5 variants are retold here after IntAct's records for PubMed 30956113.

B1: Transmembrane 4 L6 family member 5 (Homo sapiens), O14894 (parent)
chain: MCTGKCARCVGLSLITLCLVCIVANALLLVPNGETSWTNTNHLSLQVWLMGGFIGGGLMVLCPGIAAVRAGGKGCCGAGCCGNRCRMLRSVFSSAFGVLGAIYCLSVSGAGLRNGPRCLMNGEWGYHFEDTAGAYLLNRTLWDRCEAPPRVVPWNVTLFSLLVAASCLEIVLCGIQLVNATIGVFCGDCRKKQDTPH
partner: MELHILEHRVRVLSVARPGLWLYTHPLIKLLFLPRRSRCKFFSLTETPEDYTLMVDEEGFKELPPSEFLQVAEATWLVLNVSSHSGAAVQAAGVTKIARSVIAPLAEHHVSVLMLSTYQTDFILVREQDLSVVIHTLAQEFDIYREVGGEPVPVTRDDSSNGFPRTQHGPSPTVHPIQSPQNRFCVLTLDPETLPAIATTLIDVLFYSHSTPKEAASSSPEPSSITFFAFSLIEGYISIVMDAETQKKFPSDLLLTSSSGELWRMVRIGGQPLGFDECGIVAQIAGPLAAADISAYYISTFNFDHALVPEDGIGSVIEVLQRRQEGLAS
B2: Transmembrane 4 L6 family member 5 (Homo sapiens), O14894 (parent)
chain: B1 chain
B3: Transmembrane 4 L6 family member 5 (Homo sapiens), O14894 (parent)
chain: B1 chain
partner: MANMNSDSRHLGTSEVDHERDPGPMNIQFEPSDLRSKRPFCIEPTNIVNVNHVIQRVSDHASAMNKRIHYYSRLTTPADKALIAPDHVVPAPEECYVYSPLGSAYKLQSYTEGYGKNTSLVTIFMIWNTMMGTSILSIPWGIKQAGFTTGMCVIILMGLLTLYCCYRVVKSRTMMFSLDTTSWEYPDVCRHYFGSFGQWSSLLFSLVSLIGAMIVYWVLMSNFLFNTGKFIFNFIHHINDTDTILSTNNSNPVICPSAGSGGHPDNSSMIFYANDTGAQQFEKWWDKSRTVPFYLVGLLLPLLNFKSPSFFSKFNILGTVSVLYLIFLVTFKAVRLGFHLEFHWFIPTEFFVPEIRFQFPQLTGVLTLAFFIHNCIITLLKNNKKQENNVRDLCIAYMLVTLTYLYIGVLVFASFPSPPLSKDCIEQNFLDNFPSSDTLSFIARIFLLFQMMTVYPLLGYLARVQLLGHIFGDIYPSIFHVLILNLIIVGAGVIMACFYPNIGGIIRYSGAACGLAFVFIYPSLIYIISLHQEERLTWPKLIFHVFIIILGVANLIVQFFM

The first assay covers variants of B1. Conditions: with cast1_human CASTOR1, Q8WTX7.
On to W124A, for which the “effect of a mutation on the interaction” value is given as “with no effect”.

The variants in another assay derive from B2. To be noted: with mtor_human MTOR.
For Y126S, the “effect of a mutation on the interaction” value was “with no effect”.
The same measure, in the same setting: the result for W124A reads “with no effect”; that for N138A, “with no effect”.

In another assay the parent is B3. To be noted: with SLC38A9, Q8NBW4.
On to W124A, for which the “effect of a mutation on the interaction” value is on record as “with no effect”.
